This is an account of results in patent US20180217151A1.

In general, Kd refers to the constant that tells how readily two partners part at equilibrium. In general, koff refers to a measure of how fast the partners let go of each other. In general, kon refers to the second-order rate constant of association.

In assay [1] the target is CD62L antigen on human PBMCs (human) (UniProt P14151). Nature of the assay: flow cytometry, human PBMCs, biotinylated Fab 1 µg/mL, SA-APC, after five washing steps; enables reversible labeling: yes. In general terms: Flow cytometry measures light scatter and fluorescence of single cells or particles in a stream.
CD62L antigen on human PBMCs (human), sequence (P14151 39-372): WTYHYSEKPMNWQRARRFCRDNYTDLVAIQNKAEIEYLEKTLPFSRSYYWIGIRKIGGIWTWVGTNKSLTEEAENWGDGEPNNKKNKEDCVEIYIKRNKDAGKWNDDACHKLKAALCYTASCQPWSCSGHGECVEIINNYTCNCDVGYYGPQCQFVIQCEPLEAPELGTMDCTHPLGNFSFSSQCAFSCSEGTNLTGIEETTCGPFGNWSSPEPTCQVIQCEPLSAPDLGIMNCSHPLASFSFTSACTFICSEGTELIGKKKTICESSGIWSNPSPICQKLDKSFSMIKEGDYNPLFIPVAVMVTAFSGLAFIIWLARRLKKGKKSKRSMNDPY
The target is the same in assay [2]. Put plainly: flow cytometry, human PBMCs, biotinylated Fab 1 µg/mL, SA-APC, before washing; median of control (background) 0.2.
Assay [3] has the same target. Nature of the assay: flow cytometry, human PBMCs, biotinylated Fab 1 µg/mL, SA-APC, after five washing steps; median of control (background) 0.2; enables reversible labeling: yes.
The target of assay [4] is recombinant CD62L antigen (not stated (the Fab labels human PBMCs)) (UniProt P14151). Nature of the assay: SPR (Biacore), recombinant antigen (extracellular domain) immobilized by amine coupling, Fab as analyte, 1:1 binding mass transfer model. On the technique in general: Surface plasmon resonance follows binding to a sensor surface in real time, without labels.
recombinant CD62L antigen (not stated (the Fab labels human PBMCs)), sequence (P14151 39-332): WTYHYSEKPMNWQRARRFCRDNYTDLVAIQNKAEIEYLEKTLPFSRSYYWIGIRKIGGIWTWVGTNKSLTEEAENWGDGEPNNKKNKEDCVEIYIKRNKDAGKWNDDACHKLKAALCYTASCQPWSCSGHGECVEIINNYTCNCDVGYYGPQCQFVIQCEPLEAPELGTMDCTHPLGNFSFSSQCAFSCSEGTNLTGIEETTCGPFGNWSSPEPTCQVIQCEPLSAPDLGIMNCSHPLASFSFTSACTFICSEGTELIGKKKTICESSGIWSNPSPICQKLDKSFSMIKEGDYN
The target of assay [5] is CD27 antigen on human PBMCs (human) (UniProt P26842). Put plainly: flow cytometry, human PBMCs, biotinylated Fab, SA-APC, before washing; gate above APC about 1.
CD27 antigen on human PBMCs (human), sequence (P26842 20-260): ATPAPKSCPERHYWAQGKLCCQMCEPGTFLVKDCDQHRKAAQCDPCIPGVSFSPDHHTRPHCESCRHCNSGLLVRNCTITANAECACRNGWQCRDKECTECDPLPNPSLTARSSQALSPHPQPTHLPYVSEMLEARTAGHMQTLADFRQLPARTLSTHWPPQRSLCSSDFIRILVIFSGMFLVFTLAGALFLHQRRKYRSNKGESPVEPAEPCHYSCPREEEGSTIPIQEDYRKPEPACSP
For assay [6] the target is unchanged. Put plainly: flow cytometry, human PBMCs, biotinylated Fab 1 µg/mL, SA-APC, before washing; median of control (background) 0.2.
Assay [7] shares this target. Put plainly: flow cytometry, human PBMCs, biotinylated Fab, SA-APC, after five washing steps; same gate above APC about 1.
For assay [8] the target is unchanged. Put plainly: flow cytometry, human PBMCs, biotinylated Fab 1 µg/mL, SA-APC, after five washing steps; enables reversible labeling: no.
The target is the same in assay [9]. Nature of the assay: flow cytometry, human PBMCs, biotinylated Fab 1 µg/mL, SA-APC, after five washing steps; median of control (background) 0.2; enables reversible labeling: no.
The target of assay [10] is recombinant CD27 antigen (not stated (the Fab labels human PBMCs)) (UniProt P26842). Nature of the assay: SPR (Biacore), recombinant antigen (extracellular domain) immobilized by amine coupling, Fab as analyte, 1:1 binding mass transfer model.
recombinant CD27 antigen (not stated (the Fab labels human PBMCs)), sequence (P26842 20-191): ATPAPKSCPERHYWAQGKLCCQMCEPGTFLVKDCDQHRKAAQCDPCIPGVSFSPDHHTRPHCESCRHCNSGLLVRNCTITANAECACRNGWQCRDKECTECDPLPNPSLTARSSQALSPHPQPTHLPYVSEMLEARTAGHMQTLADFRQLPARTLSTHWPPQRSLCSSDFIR
The target in assay [11] is CD4 antigen on human PBMCs (human) (UniProt P01730). Nature of the assay: flow cytometry, human PBMCs, biotinylated Fab 1 µg/mL, SA-APC, after five washing steps; enables reversible labeling: yes.
The target is the same in assay [12]. Nature of the assay: flow cytometry on human PBMCs, Fab multimerized with anti-Biotin-PE, before disruption.
Assay [13] has the same target. Put plainly: flow cytometry on human PBMCs, after 2 mM biotin and one washing step.
Assay [14] has the same target. Put plainly: flow cytometry, human PBMCs, biotinylated Fab, SA-APC, before washing; gate at APC about 5e1; the same gate in control C prints 0,06%-#.
Assay [15] has as its target recombinant CD4 antigen (not stated (the Fab labels human PBMCs)) (UniProt P01730). Put plainly: SPR (Biacore), recombinant antigen (extracellular domain) immobilized by amine coupling, Fab as analyte, 1:1 binding mass transfer model.
Assay [16] has as its target CD4 antigen on human PBMCs (human) (UniProt P01730). Nature of the assay: flow cytometry, human PBMCs, biotinylated Fab 1 µg/mL, SA-APC, before washing; median of control (background) 0.3.
For assay [17] the target is unchanged. Put plainly: flow cytometry, human PBMCs, biotinylated Fab 1 µg/mL, SA-APC, after five washing steps; median of control (background) 0.3; enables reversible labeling: yes.
The target of assay [18] is CD14 antigen on human PBMCs (human) (UniProt P08571). Put plainly: flow cytometry, human PBMCs, biotinylated Fab 1 µg/mL, SA-APC, after five washing steps; enables reversible labeling: yes.
CD14 antigen on human PBMCs (human), sequence (P08571 20-345): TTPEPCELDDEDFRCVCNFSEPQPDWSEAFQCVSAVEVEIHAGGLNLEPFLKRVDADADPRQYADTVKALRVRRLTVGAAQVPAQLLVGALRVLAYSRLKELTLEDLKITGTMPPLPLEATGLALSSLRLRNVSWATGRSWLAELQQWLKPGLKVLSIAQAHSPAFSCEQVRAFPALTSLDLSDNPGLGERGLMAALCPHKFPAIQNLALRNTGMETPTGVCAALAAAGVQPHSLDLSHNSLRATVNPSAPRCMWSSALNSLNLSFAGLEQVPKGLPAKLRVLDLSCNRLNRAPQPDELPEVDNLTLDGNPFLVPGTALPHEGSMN
Assay [19] has the same target. Put plainly: flow cytometry, human PBMCs, biotinylated Fab 1 µg/mL, SA-APC, after five washing steps; median of control (background) 0.25; enables reversible labeling: yes.
For assay [20] the target is unchanged. Put plainly: flow cytometry, human PBMCs, biotinylated Fab 1 µg/mL, SA-APC, before washing; median of control (background) 0.25.
The target of assay [21] is recombinant CD14 antigen (not stated (the Fab labels human PBMCs)) (UniProt P08571). Put plainly: SPR (Biacore), recombinant antigen (extracellular domain) immobilized by amine coupling, Fab as analyte, 1:1 binding mass transfer model.
recombinant CD14 antigen (not stated (the Fab labels human PBMCs)), sequence (P08571 20-352 limits assumed): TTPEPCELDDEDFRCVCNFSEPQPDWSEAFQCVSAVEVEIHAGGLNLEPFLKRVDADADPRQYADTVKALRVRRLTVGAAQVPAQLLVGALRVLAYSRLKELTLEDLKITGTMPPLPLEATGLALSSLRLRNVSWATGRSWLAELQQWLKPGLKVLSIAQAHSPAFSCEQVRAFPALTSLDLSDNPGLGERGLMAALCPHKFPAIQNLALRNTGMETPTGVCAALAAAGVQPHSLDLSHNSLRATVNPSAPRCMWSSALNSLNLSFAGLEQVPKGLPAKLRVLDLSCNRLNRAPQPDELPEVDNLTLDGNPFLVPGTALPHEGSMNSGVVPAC

In assay [1], 145/15 pFab yielded a % median value of the detected label after Fab removal (before = 100%) of 2.3%. The median value (i) in [2] is 35. This substance yielded a median value after Fab removal (ii) in assay [3] of 0.82. Moreover, in assay [4], the Kd turned out to be 110 nM, the koff worked out at 0.068 s⁻¹ and the kon was found to be 640000 M⁻¹ s⁻¹.

In the case of M-T271 pFab, in [5], the percent of cells in gate P1\P2\P3, column L turned out to be 38.2%. The same substance displayed a median value (i) in assay [6] of 9.9. The substance further gave a percent of cells in gate P1\P2\P3, column LR in assay [7] of 40.2%. Further, the % median value of the detected label after Fab removal (before = 100%) in assay [8] was 64%. The substance further came in with a median value after Fab removal (ii) in assay [9] of 6.3. Besides, in [10], the equilibrium dissociation constant (Kd) was 0.96 nM, the koff amounted to 0.00026 s⁻¹ and the kon was found to be 270000 M⁻¹ s⁻¹.

In assay [11], M-T466 pFab had a % median value of the detected label after Fab removal (before = 100%) of 0.8%. In addition, in assay [12], the median value of the PE signal, labeled came to 16.4. The same substance came in with a median value of the PE signal after disruption with free biotin and washing in assay [13] of 0.2. The substance further registered a percent of cells in gate P5, column L in [14] of 26.9%. In assay [15], the equilibrium dissociation constant (Kd) was 16 nM, the koff was determined as 0.016 s⁻¹ and the kon is 1e+06 M⁻¹ s⁻¹. Moreover, the median value (i) in assay [16] turned out to be 49. In [17], this substance showed a median value after Fab removal (ii) of 0.37.

Substance TUK4 pFab registered a % median value of the detected label after Fab removal (before = 100%) in assay [18] of 0.7%. In assay [19], this substance had a median value after Fab removal (ii) of 1. The same substance came in with a median value (i) in [20] of 152. Moreover, in assay [21], the Kd was found to be 330 nM, the koff turned out to be 0.24 s⁻¹ and the kon is 730000 M⁻¹ s⁻¹.
